Substitutions are numbered along the chain they refer to. Each block holds one binder with its values, some of them ahead of it.
Tests used:
[1] = target: T1, human CD33 (full length ECD), recombinant (human, UniProt P20138 18-259); assay: SPR (Biacore 8K), vHH-mono-Fc captured by anti-human Fc, antigen in solution
T1 construct: extracellular domain; Tag or HSA fusion partner unknown; also called hu CD33 (FL ECD); hCD33-FL ECD
Experimental: (§1) The binding affinity of anti-CD33 antibodies and Llama vHHs to the recombinant human CD33 (FL ECD or IgC2 domain) was determined by surface plasmon resonance (SPR) using Biacore 8K instrument. […] The association and dissociation were monitored for 2 and 30 minutes, respectively, using a flow rate of 50 μL/min. Raw binding data was referenced by subtracting the analyte binding signals from blanks and analyzed using a 1:1 Langmuir binding model using the Biacore software to obtain the kinetics which were used to calculate the binding affinity.
(§2) The anti-CD33 Llama vHHs on a mono-Fc backbone were captured using an anti-human Fc antibody and the antigens were injected in solution.

[2] = target: T2, human CD33 IgC2 domain, recombinant (human, UniProt P20138 136-259); assay: as above
T2 construct: domain: IgC2; also called hu CD33 (IgC2); hCD33-IgC2
T2 sequence (P20138 136-259 limits assumed): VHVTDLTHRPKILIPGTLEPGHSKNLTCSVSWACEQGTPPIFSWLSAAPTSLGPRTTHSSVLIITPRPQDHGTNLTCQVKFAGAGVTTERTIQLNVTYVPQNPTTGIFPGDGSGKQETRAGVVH
Experimental: as §1, §2

[3] = target: T1, human CD33 (full length ECD), …; assay: SPR (Biacore 8K), antibody captured by anti-human Fc, antigen in solution
Experimental: (§3) Affinities (KD) for the interaction of anti-CD33 antibodies human CD33 (full length ECD and IgC2 domain) were obtained by SPR. The anti-CD33 antibodies were captured using an anti-human Fc antibody and the antigens were injected in solution.
as §1

[4] = target: T2, human CD33 IgC2 domain, recombinant; assay: as above
Experimental: as §3, §1

[5] = target: T3, human CD33 on cells (MOLM-13, Kasumi-1, OCI-AML-3, Kasumi-3) (human, UniProt P20138 18-364); assay: flow cytometry on OCI-AML-3 cells, 4 °C, serial dilutions of the antibody
T3 construct: whole, on cells; also called CD33 expressing cells; CD33+ cell lines
T3 sequence (P20138 18-364): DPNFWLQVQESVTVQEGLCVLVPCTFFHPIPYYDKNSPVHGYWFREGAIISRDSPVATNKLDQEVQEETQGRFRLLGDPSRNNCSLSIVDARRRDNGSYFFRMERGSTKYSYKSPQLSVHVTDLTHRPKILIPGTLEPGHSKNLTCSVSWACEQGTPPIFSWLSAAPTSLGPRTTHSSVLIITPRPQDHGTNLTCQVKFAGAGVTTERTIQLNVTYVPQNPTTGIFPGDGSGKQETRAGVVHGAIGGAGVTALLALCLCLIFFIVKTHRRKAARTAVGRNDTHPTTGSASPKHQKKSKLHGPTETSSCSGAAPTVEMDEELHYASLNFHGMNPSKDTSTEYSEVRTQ
Experimental: (§4) Cells were harvested, washed once with PBS and then stained with the fixable viability dye at room temperature for 30 min. Following incubation, cells were washed twice with FACS buffer (PBS+2% FBS). Cells were then used for binding assay with test antibodies. 100,000 cells were stained with the test antibodies in a 100 ul staining volume. Antibodies for staining were diluted in FACS buffer and incubated with the cells for 40 mins on ice, followed by washing 2X with FACS buffer. Test antibodies were then detected using the PE conjugated Goat F(ab′)2 Anti-Human IgG-Fc (ab98596; Abcam) for 40 minutes on ice. Following washing, data was acquired on the Novocyte flow cytometer (ACEA). Cells were gated on FSC/SSC, followed by live cell gating and doublet discrimination. Data was analyzed using Flow Jo (BD).
(§5) Median fluorescence intensity values were used to plot a 4-parameter non-linear regression analysis curve after subtracting the MFI of the secondary only sample.
(§6) The binding EC₅₀ values of CD33 antibodies to high (MOLM-13), medium (Kasumi-1) and low (OCI-AML-3) cell lines were assayed. Binding was carried out at 4° C. with serial dilutions of the antibody.

[6] = target: T3, human CD33 on cells (MOLM-13, Kasumi-1, …); assay: flow cytometry on MOLM-13 cells, 4 °C, serial dilutions of the antibody
Experimental: as §4, §5, §6

[7] = target: T3, human CD33 on cells (MOLM-13, Kasumi-1, …); assay: flow cytometry on MOLM-13 cells, 4 °C, detection with PE goat F(ab')2 anti-human IgG-Fc

T1 sequence (P20138 18-259): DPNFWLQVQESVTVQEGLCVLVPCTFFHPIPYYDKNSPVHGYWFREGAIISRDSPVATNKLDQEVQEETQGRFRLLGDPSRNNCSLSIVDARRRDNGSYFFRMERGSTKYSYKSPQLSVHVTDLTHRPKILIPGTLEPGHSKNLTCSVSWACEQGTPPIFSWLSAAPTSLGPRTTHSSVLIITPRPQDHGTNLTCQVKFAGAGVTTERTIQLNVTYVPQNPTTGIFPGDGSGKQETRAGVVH

B1: C33B1788 (llama vHH on mono-Fc backbone) (Fc fusion)
chain: QVQLVESGGGLVQPGGSLRLSCAVFGFSLSDYAIGWFRQAPGKEREKVSCISESDGRTYLSDSVKSRFTISRDNGKNTVYLQMNNLKPDDTGVYYCATVDQAISESSYHCEKGFGSWGQGTQVTVSS
notes: not shown: mono-Fc backbone
Kd [1]: 0.707 nM
Kd [2]: 4.34 nM

B4: C33B931 (antibody, V domains shown)
VH: not shown
VL: SYELTQPPSVSVSPGQTASITCSGDKLGSKFASWYQQKPGQSPVLVIYQDSKRPSGIPERFSGSNSGNTATLTISGTQAMDEADYYCQAWDSSTVVFGGGTKLTVL
Kd [3]: 0.4 nM

B5: C33B919 (antibody, V domains shown)
VH: QVQLVESGGGVVQPGRSLRLSCAASGFTFSSYGMHWVRQAPGKGLEWVAVISYDGSNKYYADSVKGRFTISRDNSKNTLYLQMNSLRAEDTAVYYCAKDFRSFDWLPPDSTSYYGMDVWGQGTTVTVSS
VL: B4 VL with S29D, F31Y, A32V, L45V, Y48H, S51R, S66F
Kd [3]: 0.5 nM
binding result [4]: no binding (tested: 40 nM-1.6 nM CD33 antigen)

B6: C33B933 (antibody, V domains shown)
VH: B5 VH with A40S, N77S, F103L, Y114D
VL: B4 VL with D25H, S29D, F31Y, L45V, Q49K, S66F
Kd [3]: 0.5 nM

B7: C33B937 (antibody, V domains shown)
VH: B5 VH with A23V, D90G, T111A, Y114H
VL: B4 VL with S29D, F31Y, S51G, S66F, T69K, S92R, S93N
Kd [3]: 0.3 nM
Kd [4]: 56 nM

B8: C33B125 (antibody, V domains shown)
VH: B5 VH
VL: B4 VL with S29D, F31Y, A32V, S33C, L45V, Y48H, S51R, S66F
Kd [3]: 0.1 nM
Kd [4]: > 10 nM

B11: C33B1783 (llama vHH on mono-Fc backbone) (Fc fusion)
chain: EVQLVESGGGLVQAGGSLRLSCAASGFTFDDYAVGWFRQVPGKEREGVSCISSSDGATYYADSVKGRFTISSDNAKNTVYLQMNSLKPEDTAVYYCTAIIVRGSGWERAAAACRYEYSYWGQGTQVTVSS
notes: vHH is placed first; not shown: mono-Fc backbone
Kd [1]: 0.0859 nM

B13: C33B1474 (antibody, V domains shown)
VH: QVQLVESGGGLVQPGGSLRLSCAASGFTFSSFGMSWVRQAPGKGLEWVANIKRDGSEKYYVDSVKGRFTISRDNAKNSLFLQMSSLRAEDTAVYYCVRDYGYFDFWGQGTLVTVSS
VL: DIQMTQSPSSLSASVGDRVTITCQASQAISNYLNWYQQKPGKAPKLLIYDASNLETGVPSRFSGSGSGTDFTFTISSLQPEDFSTYFCQHYDNLPYTFGQGTKLEIK
EC50 [5]: 1.26 nM
EC50 [6]: 78.4 nM
Kd [3]: 2.47 nM
Kd [4]: 3.99 nM

B15: C33B1478 (antibody, V domains shown)
VH: EVQLVESGGGLVQPGGSLKVSCEASGFTFSVSAIHWVRQASGKGLEWIGRIRSKGNSYATAYDVSVKGRFTISRDDSKNTAYLQMDSLKTEDTAVYYCTRHNDKWNYYGLDVWGQGTTVTVSS
VL: DIVMTQSPLSLPVTPGEPASISCKSSQSLLFSNGYKFLDWYLQRPGQSPQLLIYLGSYRASGVPDRFSGSGSGTDFTLKISRVEAEDVGLYYCMQALQTPPTFGGGTKVEIK
modifications: In the FIG. 3 assay the antibody carried Alexa Fluor 647 (p-1610); the site is not given and the letters do not carry it.
notes: also called sCD33B1478
binding result [7]: binds

Now from value to binder, other results behind:

Kd [1]: 0.67 nM
Kd [2]: 3.03 nM
B2: C33B1789 (llama vHH on mono-Fc backbone) (Fc fusion)
chain: B1 chain with P14A
notes: not shown: mono-Fc backbone

Kd [3]: 1.49 nM
B3: C33B1607 (antibody, V domains shown)
VH: EVQLQQSGPELVKPGSSVKISCKASGYTFTDYNINWVKQSHGKNLEWIGTINPNNGVTFYNQRFKGQATLTVDKSSSTAYMELRSLTSEDSAVYYCSRDGYDTYYAMDYWGQGTTLTVSS
VL: DIVMTQSHKFMSTSVGDRVSITCKASQDVRTAEAWYQQKPGQSPKLLIYSASNRYTGVPDRFTGSGSGTDFTFTISSVQAEDLAVYYCQQYYTTPRTFGGGTKLEIK
binding result [4]: no binding (tested: 40 nM-1.6 nM CD33 antigen)

Kd [1]: 0.357 nM
B9: C33B1786 (llama vHH on mono-Fc backbone) (Fc fusion)
chain: EVQVVESGGGVVQSGGSLTLSCEASESILSFSTMDWFRQAPGKEREGVSCIRPRYSTTTHADSIKGRFKMYSDNAKNTIYLHMNSLQPEDTAVYYCHMYHYSSQYWGQGTQVTVSS
notes: not shown: mono-Fc backbone

Kd [3]: 1.1 nM
Kd [4]: 6.8 nM
B10: C33B1601 (antibody, V domains shown)
VH: EVQLVESGGGLVRPGGSLKLSCAASGFTFSNYAMSWVRQTPEKRLEWVAGISNSGYSLYYPDTLKGRFTISRDNARNTLYLQMISLRSEDTAMYYCARDGGSYPYAMDYWGHGTSVTVSS
VL: DIVMTQSQKFMSTSVGDRVSVTCKASQNVGTYVAWYQQKPGHSPKALIYSASYRYSGVPDRFTGSGSGTDFTLTISNVQSEDLADYFCQQYKSYPLTFGAGTKLELK

Kd [1]: 0.206 nM
B12: C33B1782 (llama vHH on mono-Fc backbone) (Fc fusion)
chain: B11 chain with V40A, V48I, S72T, V79A, Y80F, I99V, S104T, S118A
notes: not shown: mono-Fc backbone

Kd [1]: 0.792 nM
B14: C33B1787 (llama vHH on mono-Fc backbone) (Fc fusion)
chain: EVQLVESGGGLVQAGGSLRLSCAASGFTFDDYAIGWFRQAPGKEREGVSCISSSDGSTYYVDSVKGRFTISSDNAKNTVYLQMNSLKPEDTAVYYCTALIIMYGSGSERAAAACRYKYEYWGQGTQVTVSS
notes: not shown: mono-Fc backbone

EC50 [5]: 0.8 nM
B16: C33B1476 (antibody, V domains shown)
VH: B15 VH with D63N
VL: B15 VL
notes: also called sCD33B1476

binding result [7]: binds
B17: C33B1484 (antibody, V domains shown)
VH: B15 VH with S32F
VL: B15 VL with G105Q
notes: also called sCD33B1484

Kd [1]: 2.21 nM
Kd [2]: 0.0559 nM
B18: C33B1781 (llama vHH on mono-Fc backbone) (Fc fusion)
chain: EVQVVESGGGLVQGGGSLRLSCAASGSIFSINAMGWYHQAPGKQRELVARITGGGATDYVDSVKGRFTISLDSAKSTVYLQMNSLKPEDTAVYHCYADLVTRVGSDLLYDDYWGQGTQVTVSS
notes: not shown: mono-Fc backbone

EC50 [5]: 1.4 nM
EC50 [6]: 10.6 nM
Kd [3]: 4.44 nM
B19: C33B1517 (antibody, V domains shown)
VH: QVQLQESGPGLVKPSETLSLTCSVSGASIRNYYWSWIRQTAGKGLEWLGHIYSTGNIHYNPSLKSRVTMSVDTSNNQFSLKLRSVTAADTAVYYCARDNGAALFDYWGQGTLVTVSS
VL: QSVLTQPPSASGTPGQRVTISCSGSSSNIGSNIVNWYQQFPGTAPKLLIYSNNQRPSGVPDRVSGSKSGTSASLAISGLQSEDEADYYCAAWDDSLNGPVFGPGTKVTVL
binding result [4]: no binding (tested: 40 nM-1.6 nM CD33 antigen)

binding result [1]: binds
B20: C33B1784 (llama vHH on mono-Fc backbone) (Fc fusion)
chain: EVQLVESGGGLVQAGGSLRLSCAASGRTFSTYVMGWFRQAPGQERELVAAIVSGRNPTYADSVKSRFTISRDNAKNTIYLHMNSLQPEDTAVYYCHMYHYSSQYWGQGTQVTVSS
notes: not shown: mono-Fc backbone

binding result [7]: binds
B21: C33B1495 (antibody, V domains shown)
VH: EVQLVESGGGLVQPGGSLRLSCTASGFTFSSYWMSWVRQAPGKGLDWVANIKRDGSEKHYVDSVKGRFTISRDNAKNSLYLQMNSLRAEDSAVYYCTRDYGYFDYWGQGTLVTVSS
VL: DIQLTQSPSFLSASVGDRVTITCRASQGISSYLAWYQQKPGKAPKVLIYAASTLQSGVPSRFSGSGSGTEFTLTISSLQPEDFATYFCQQLNSYPVTFGGGTKVEIK
notes: also called sCD33B1495
